# Results from article PMC2679190.
# Target: MyBPC1 (Myosin Binding Protein C1) (UniProt Q00872)
# Chain of UniProt Q00872 (Q00872 whole entry): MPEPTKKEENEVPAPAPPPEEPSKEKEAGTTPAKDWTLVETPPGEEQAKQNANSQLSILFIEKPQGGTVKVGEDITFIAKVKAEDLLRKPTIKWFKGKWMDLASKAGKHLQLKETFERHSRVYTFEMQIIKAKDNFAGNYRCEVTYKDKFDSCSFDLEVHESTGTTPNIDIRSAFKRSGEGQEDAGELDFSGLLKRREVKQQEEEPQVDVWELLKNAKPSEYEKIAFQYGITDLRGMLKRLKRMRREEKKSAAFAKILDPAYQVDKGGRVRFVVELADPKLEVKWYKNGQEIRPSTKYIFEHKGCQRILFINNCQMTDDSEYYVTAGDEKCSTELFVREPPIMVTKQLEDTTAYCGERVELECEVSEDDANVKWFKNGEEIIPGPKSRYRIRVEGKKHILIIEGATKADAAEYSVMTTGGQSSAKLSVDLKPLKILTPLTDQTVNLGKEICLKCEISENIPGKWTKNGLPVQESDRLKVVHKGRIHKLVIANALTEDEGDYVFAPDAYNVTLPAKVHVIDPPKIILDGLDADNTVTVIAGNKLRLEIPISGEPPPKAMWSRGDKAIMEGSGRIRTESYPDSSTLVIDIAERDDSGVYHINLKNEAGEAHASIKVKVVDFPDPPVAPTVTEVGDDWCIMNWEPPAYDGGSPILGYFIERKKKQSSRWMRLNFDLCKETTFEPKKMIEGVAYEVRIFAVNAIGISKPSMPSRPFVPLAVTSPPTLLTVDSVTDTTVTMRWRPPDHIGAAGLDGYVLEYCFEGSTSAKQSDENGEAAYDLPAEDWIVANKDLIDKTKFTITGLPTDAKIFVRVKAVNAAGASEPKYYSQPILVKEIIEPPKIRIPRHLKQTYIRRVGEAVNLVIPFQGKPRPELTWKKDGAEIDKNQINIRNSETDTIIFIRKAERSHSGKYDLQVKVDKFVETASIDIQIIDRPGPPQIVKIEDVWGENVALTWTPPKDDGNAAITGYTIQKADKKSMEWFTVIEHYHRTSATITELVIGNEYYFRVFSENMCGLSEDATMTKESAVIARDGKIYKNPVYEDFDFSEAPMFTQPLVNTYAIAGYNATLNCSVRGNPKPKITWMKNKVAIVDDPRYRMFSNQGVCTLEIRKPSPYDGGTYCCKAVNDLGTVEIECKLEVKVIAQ
row,"rescue of HA-MyBPC1 from proteasome degradation in co-transfected HEK293T cells (MyBPC1 level by western blot, rescue by wild-type USP25m = 1) [fold]",Substance
1,3,"USP25m ΔUBA (Δ19-58 aa, inclusive) (enzyme)"
2,< 8,"USP25m ΔUBA-UIM1-UIM2 (Δ19-141 aa, inclusive) (enzyme)"
3,2,"USP25m ΔUIM1 (Δ96-115 aa, inclusive) (enzyme)"
